Assay results reported in PMC3711744 (The Journal of neuroscience : the official journal of the …, 2013).
Read-outs that look alike come from different tables or passages of the source. One block for each binder: values may come before it.

Tests used:
Test in all cases: pull-down
[1] = molecular target: T1, His-tagged CaMKIIα-FL(M1-H478) (UniProt P11275 1-478)
[2] = molecular target: T1, His-tagged CaMKIIα-FL(M1-H478); remark: listed apart in the source
[3] = molecular target: T286-autophosphorylated CaMKIIα (UniProt P11275 1-478, phosphothreonine at 286 (autophosphorylation))
GST-CaMKIIα-FL(M1-H478) = GST-CaMKIIα-FL(M1-H478) (UniProt P11275 1-478)
Sequence of GST-CaMKIIα-FL(M1-H478) (P11275 whole entry): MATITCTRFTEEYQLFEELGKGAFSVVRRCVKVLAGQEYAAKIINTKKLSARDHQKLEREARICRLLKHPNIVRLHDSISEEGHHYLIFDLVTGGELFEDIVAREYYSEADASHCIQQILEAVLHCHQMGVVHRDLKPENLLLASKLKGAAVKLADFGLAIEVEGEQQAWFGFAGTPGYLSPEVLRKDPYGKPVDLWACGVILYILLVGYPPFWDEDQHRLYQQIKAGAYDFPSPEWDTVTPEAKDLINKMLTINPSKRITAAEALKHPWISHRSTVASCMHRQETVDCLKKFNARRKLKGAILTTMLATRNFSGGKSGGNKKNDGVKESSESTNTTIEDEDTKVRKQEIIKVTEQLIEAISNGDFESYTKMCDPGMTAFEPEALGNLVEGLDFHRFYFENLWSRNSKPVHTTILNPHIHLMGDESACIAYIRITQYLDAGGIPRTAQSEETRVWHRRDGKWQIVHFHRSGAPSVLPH

T1 sequence (P11275 whole entry): as above
Sequence of T286-autophosphorylated CaMKIIα (P11275 whole entry): as above

B3: GST-mGluR1a-CT1(K841-T1000) (domain or fragment, rat, UniProt P23385 841-1000, looked up)
chain: KPERNVRSAFTTSDVVRMHVGDGKLPCRSNTFLNIFRRKKPGAGNANSNGKSVSWSEPGGRQAPKGQHVWQRLSVHVKTNETACNQTAVIKPLTKSYQGSGKSLTFSDASTKTLYNVEEEDNTPSAHFSPPSSPSMVVHRRGPPVATTPPLPPHLTAEET
- binding result [3]: binds
- binding result [2]: binds

B5: purified mGluR1a-CT (domain or fragment, rat, UniProt P23385 841-1199, looked up)
chain: KPERNVRSAFTTSDVVRMHVGDGKLPCRSNTFLNIFRRKKPGAGNANSNGKSVSWSEPGGRQAPKGQHVWQRLSVHVKTNETACNQTAVIKPLTKSYQGSGKSLTFSDASTKTLYNVEEEDNTPSAHFSPPSSPSMVVHRRGPPVATTPPLPPHLTAEETPLFLADSVIPKGLPPPLPQQQPQQPPPQQPPQQPKSLMDQLQGVVTNFGSGIPDFHAVLAGPGTPGNSLRSLYPPPPPPQHLQMLPLHLSTFQEESISPPGEDIDDDSERFKLLQEFVYEREGNTEEDELEEEEDLPTASKLTPEDSPALTPPSPFRDSVASGSSVPSSPVSESVLCTPPNVTYASVILRDYKQSSSTL
- binding result (GST-CaMKIIα-FL(M1-H478)): binds

Other lines, results leading:

- binding result [1]: binds
B1: GST-mGluR1a-CT1a(K841-N885) (domain or fragment, rat, UniProt P23385 841-885, looked up)
chain: KPERNVRSAFTTSDVVRMHVGDGKLPCRSNTFLNIFRRKKPGAGN

- binding result [2]: binds
B2: mGluR1a-i (14-amino acid interfering peptide) (peptide)
peptide: KLPCRSNTFLNIFR

- binding result [1]: binds
B4: GST-mGluR1a-CT-FL(K841-L1199) (domain or fragment, rat, UniProt P23385 841-1199, looked up)
chain: B5 chain
